According to PMC10028610, “A Cold-Active Flavin-Dependent Monooxygenase from Janthinobacterium svalbardensis Unlocks Applications of Baeyer–Villiger Monooxygenases at Low Temperature” (ACS Catalysis, 2023):

B1: JsFMO (Janthinobacterium svalbardense) (protein)
chain: MQTDSNPHDLAVAGILEQLEGCLRASDSTGAAQLFEPDGYWRDLVLFTWNLKTLEGREQIAAMLAAQLGAVQPVSIRIADGEHAVEAGGVLQSWITVETNVARGVGFIRIRDGKIWTLLTTMSELKGFEEAKGGRRPMGAEHGARTDRSSWLEQREQEAKELGYARQPYCVIIGGGQGGIALGARLRQLNVPTIIIEKNARPGDSWRKRYKSLCLHDPVWYDHMPYIPFPDNWPVFTPKDKVGDWLEMYTKVMELNYWGSTSCESASFDAASGEWTVQVLRDGQPVTLKPKQLVLATGMSGKANMPKFKGMDVFQGEQQHSSQHPGPDAYAGKKVVVVGANNSAHDICAALWEAGVDVTMVQRSSTHIVKSDSLMDLALGDLYSERALAAGMTTNKADLTFASIPYKILANFQKPVFKAIRERDADFYARLEERGFMLDFGDDDSGLFMKYLRRGSGYYIDVGASELVAEGKIKLKSGVGVQELKSHSIVLSDGTELPADLVVYATGYGSMNGWAADLISPEVANKVGKVWGLGSATTKDPGPWEGEQRNMWKPTQQQALWFHGGNLHQSRHYSQYLSLQLKARMEGLNTPVYGQQEVHHLS
notes: full-length, codon-optimized in pET-28a(+)-TEV, E. coli ArcticExpress (DE3), C-terminal His-tag (stated for crystal structure); homodimer; SnoaL-like N-terminal domain, C-terminal helix residues 567-586

Columns and labels:
[1] = biological target: type II flavin-containing monooxygenase from Janthinobacterium svalbardensis (Janthinobacterium svalbardensis PAMC27463); assay: SEC; size exclusion chromatography of purified JsFMO, with a calibration curve (Figure S2)
[2] = biological target: type II flavin-containing monooxygenase from Janthinobacterium svalbardensis (Janthinobacterium svalbardensis PAMC27463); assay: crystal structure; sitting-drop vapor diffusion in the cold room (4-8 °C); 16 mg/mL JsFMO, glycerol 20%, PEG 8000 13%, 100 mM Bis-Tris pH 6.5; four protomers forming two dimers in the asymmetric unit; FAD bound, no NADP+
purified protein [3] = substrate: NC(=O)C1=CN([C@@H]2O[C@H](COP(=O)(O)OP(=O)(O)OC[C@H]3O[C@@H](n4cnc5c(N)ncnc54)[C@H](O)[C@@H]3O)[C@@H](O)[C@H]2O)C=CC1; assay: purified protein; type: biochemical, Janthinobacterium svalbardense; settings: 100 mM Tris-HCl pH 7.5, 500 mM NaCl, 10% glycerol, 1 mM DTT, 5 μM FAD, room temperature, co-substrate concentration not given
purified protein [4] = substrate: NC(=O)C1=CN([C@@H]2O[C@H](COP(=O)(O)OP(=O)(O)OC[C@H]3O[C@@H](n4cnc5c(N)ncnc54)[C@H](OP(=O)(O)O)[C@@H]3O)[C@@H](O)[C@H]2O)C=CC1; assay: purified protein; type: biochemical, Janthinobacterium svalbardense; settings: 100 mM Tris-HCl pH 7.5, 500 mM NaCl, 10% glycerol, 1 mM DTT, 5 μM FAD, room temperature, co-substrate concentration not given
purified protein [5] = substrate: O=C1CC2C=CCC12; assay: purified protein; type: biochemical, Janthinobacterium svalbardense; settings: 0.25 mM NADPH, 0.25-20 mM 1a, 100 mM Tris-HCl pH 7.5, 500 mM NaCl, 10% glycerol, 1 mM DTT, 5 μM FAD, room temperature

Molecule | stoichiometry N [1] | stoichiometry N [2] | Km (purified protein [3]) [µM] | kcat (purified protein [3]) [s^–1] | Km (purified protein [4]) [µM] | kcat (purified protein [4]) [s^–1] | Km (purified protein [5]) [µM] | kcat (purified protein [5]) [s^–1]
type II flavin-containing monooxygenase from Janthinobacterium svalbardensis (enzyme) | 2 | 2 |  |  |  |  |  | 
B1 |  |  | 78.5 ± 7.5 | 0.23 ± 0.1 | 14.4 ± 2.5 | 0.21 ± 0.1 | 1050 ± 230 | 0.29 ± 0.01
